{"source": "paper PMC3364176", "binders": {"B1": {"name": "GST-CSAP (glutathione S-transferase fusion with full-length centriole and spindle-associated protein) (natural protein)", "chain": "MSPGSGVKSEYMKRYQEPRWEEYGPCYRELLHYRLGRRLLEQAHAPWLWDDWGPAGSSEDSASSESSGAGGPAPRCAPPSPPPPVEPATQEEAERRARGAPEEQDAEAGDAEAEDAEDAALPALPVKDVEDKPEQQTRTRETDKSPTSTEPRQQPSALFARGNRKAVKSPQRSSSKIKENKHPFALYGWGEKQTDTGSQKTHNVCASAPVHEIHESALRAKNRRQVEKRKLVAQRQRAHSVDVEKNRKMKASSSENPWMTEYMRCYSARA"}}, "target": "bovine brain microtubules (bovine) (UniProt Q6B856)", "assay": "co-sedimentation", "data": [{"binder": "B1", "values": [{"measurement": "Kd", "value": "1000 to 2000", "unit": "nM"}]}]}
